Assay results: patent publication US20200199204A1 (UNITED STATES OF AMERICA AS REPRESENTED BY THE SECRETARY …, published 2020)

Columns and labels:
Assay in all cases: cell-based or functional assay
HIV-1 Env of CM244.ec1 = HIV-1 Env of CM244.ec1 (HIV-1)
HIV-1 Env of TRO.11 = HIV-1 Env of TRO.11 (HIV-1)
HIV-1 Env of KER2008.12 = HIV-1 Env of KER2008.12 (HIV-1)
HIV-1 Env of 6405.v4.c34 = HIV-1 Env of 6405.v4.c34 (HIV-1)
HIV-1 Env of ZM249.1 = HIV-1 Env of ZM249.1 (HIV-1)
HIV-1 Env of Q168.a2 = HIV-1 Env of Q168.a2 (HIV-1)
HIV-1 Env of 191821.E6.1 = HIV-1 Env of 191821.E6.1 (HIV-1)
HIV-1 Env of Q461.e2 = HIV-1 Env of Q461.e2 (HIV-1)
HIV-1 Env of ZM135.10a = HIV-1 Env of ZM135.10a (HIV-1)
HIV-1 Env of ZM109.4 = HIV-1 Env of ZM109.4 (HIV-1)
HIV-1 Env of ZM197.7 = HIV-1 Env of ZM197.7 (HIV-1)
HIV-1 Env of ZM233.6 = HIV-1 Env of ZM233.6 (HIV-1)
HIV-1 Env of 6535.3 = HIV-1 Env of 6535.3 (HIV-1)
HIV-1 Env of RW020.2 = HIV-1 Env of RW020.2 (HIV-1)
HIV-1 Env of RHPA.7 = HIV-1 Env of RHPA.7 (HIV-1)
HIV-1 Env of THRO.18 = HIV-1 Env of THRO.18 (HIV-1)
HIV-1 Env of Q23.17 = HIV-1 Env of Q23.17 (HIV-1)
HIV-1 Env of SC422.8 = HIV-1 Env of SC422.8 (HIV-1)
HIV-1 Env of 96ZM651.02 = HIV-1 Env of 96ZM651.02 (HIV-1)
HIV-1 Env of BG505.w6m = HIV-1 Env of BG505.w6m (HIV-1)
HIV-1 Env of Q769.d22 = HIV-1 Env of Q769.d22 (HIV-1)
HIV-1 Env of MB539.2B7 = HIV-1 Env of MB539.2B7 (HIV-1)
HIV-1 Env of DU172.17 = HIV-1 Env of DU172.17 (HIV-1)
HIV-1 Env of 0260.v5.c36 = HIV-1 Env of 0260.v5.c36 (HIV-1)
HIV-1 Env of DU156.12 = HIV-1 Env of DU156.12 (HIV-1)
HIV-1 Env of C1080.c3 = HIV-1 Env of C1080.c3 (HIV-1)
HIV-1 Env of TRJO.58 = HIV-1 Env of TRJO.58 (HIV-1)
HIV-1 Env of 3016.V5.c36 = HIV-1 Env of 3016.V5.c36 (HIV-1)
HIV-1 Env of CAP256.PI = HIV-1 Env of CAP256.PI (HIV-1)
HIV-1 Env of UG037.8 = HIV-1 Env of UG037.8 (HIV-1)
HIV-1 Env of AC10.29 = HIV-1 Env of AC10.29 (HIV-1)
HIV-1 Env of Q259.d2.17 = HIV-1 Env of Q259.d2.17 (HIV-1)
HIV-1 Env of CAP210.E8 = HIV-1 Env of CAP210.E8 (HIV-1)
HIV-1 Env of QH0692.42 = HIV-1 Env of QH0692.42 (HIV-1)
HIV-1 Env of DU422.01 = HIV-1 Env of DU422.01 (HIV-1)
HIV-1 Env of CAP256.SU = HIV-1 Env of CAP256.SU (HIV-1)
HIV-1 Env of WITO.33 = HIV-1 Env of WITO.33 (HIV-1)
HIV-1 Env of CAP45.G3 = HIV-1 Env of CAP45.G3 (HIV-1)
HIV-1 Env of MB201 = HIV-1 Env of MB201 (HIV-1)
HIV-1 Env of CAAN.A2 = HIV-1 Env of CAAN.A2 (HIV-1)
HIV-1 Env of KER2018.11 = HIV-1 Env of KER2018.11 (HIV-1)
HIV-1 Env of Q842.d12 = HIV-1 Env of Q842.d12 (HIV-1)
HIV-1 Env of ZM53.12 = HIV-1 Env of ZM53.12 (HIV-1)
HIV-1 Env of PVO.04 = HIV-1 Env of PVO.04 (HIV-1)
HIV-1 Env of CAP244.D3 = HIV-1 Env of CAP244.D3 (HIV-1)
HIV-1 Env of ZM214.15 = HIV-1 Env of ZM214.15 (HIV-1)
HIV-1 Env of REJO.67 = HIV-1 Env of REJO.67 (HIV-1)

Measured: neutralization IC50

B1: CAP256-VRC26.12 (antibody, V domains shown)
VH: EVQLVQSGGGVVQPGRSLRLSCAAPYFEFGRYGFHWVRQAPGKGLEWVASISFAGRDYYHSPSVWGRFTISRDNSKNTLYLQMNSLRIEDTALYFCARDLRESECEEWESDYYDFGKKGPCVKPRGVAGGLDLWGQGTMVIVSS
VL: QSVLTQPPSVSTAPGQTVTVSCSGGTSNTGNNFVSWYQHLPGTAPKLLIYENNKRPLGVPDRFSGAKSGTSATLAITGLQTGDEGDYYCATWSGSLNIGTGTKVSVLG
0.072 µg/mL: HIV-1 Env of CAP210.E8
0.032 µg/mL: HIV-1 Env of CAP256.SU
7.93 µg/mL: HIV-1 Env of 3016.V5.c36
0.211 µg/mL: HIV-1 Env of ZM53.12
> 50 µg/mL: all other assays above

B2: CAP256-VRC26.11 (antibody, V domains shown)
VH: EVQLVESGGGVVPPGKSLTLSCVASRFTFSAFGMHWVRQAPGKGLEWVASISFAGIKKYYADSVKGRFSISRDNSNTLFLQMNGLRGEDTGLYHCVKDMRELECEEWASDYYDFGKPQPCLDRRGVSGISAWWGPGTMVTVSS
VL: QSVLTQPPSVSAAPGQNVTISCSGPPSHIEKNDVSWYQRLPGMAPKMVIYESKRRPLGIPVRFSASRSGSSATLVITGLQTADEADYYCGTWDGRMNFGTGTTVSVLG
0.081 µg/mL: HIV-1 Env of ZM53.12
26.7 µg/mL: HIV-1 Env of CM244.ec1
0.018 µg/mL: HIV-1 Env of C1080.c3
11.5 µg/mL: HIV-1 Env of DU422.01
1.76 µg/mL: HIV-1 Env of KER2018.11
34.5 µg/mL: HIV-1 Env of ZM249.1
0.073 µg/mL: HIV-1 Env of CAP210.E8
0.055 µg/mL: HIV-1 Env of ZM197.7 | HIV-1 Env of CAP256.SU
0.322 µg/mL: HIV-1 Env of ZM233.6
0.3 µg/mL: HIV-1 Env of 3016.V5.c36
4.2 µg/mL: HIV-1 Env of BG505.w6m
10.8 µg/mL: HIV-1 Env of PVO.04
> 50 µg/mL: all other assays above
